Results on one molecule are retold here after patent CN107042090A.

Test [1] has as its target Myc-GST融合蛋白 (Myc标签与谷胱甘肽融合的蛋白). Put plainly: ELISA, Myc-GST coated at 5 μg/mL, HRP anti-His secondary antibody; heat test at 90℃.
The target in test [2] is Myc-GST融合蛋白 (Myc标签与谷胱甘肽融合的蛋白). Put plainly: ELISA, Myc-GST coated at 5 μg/mL, HRP anti-His secondary antibody; heat test at 80℃.
Test [3] deals with Myc-GST融合蛋白 (Myc标签与谷胱甘肽融合的蛋白). In words: ELISA, Myc-GST coated at 5 μg/mL, HRP anti-His secondary antibody; heat test at 70℃.

B1: 抗c-Myc标签单域重链抗体 (anti-c-Myc tag single-domain heavy-chain antibody) (VHH, not shown: small tags and cut ends)
VHH: QLQLVESGGGEVQAGGSLKLSCAASGSNVQISAMGWYRQVPGKQREFVASETNGGRIDYADFVEGRFTISRDRAKNTVYLQMTSLRPEDTAVYYCNAAPGGWYADLREEYWGKGTLVTVSS
Consider B1, for which the OD450 in test [1] is 1.1 OD450; in test [2], 1.2 OD450; in test [3], 1.5 OD450.
